Experimental data reported in patent US20240158496A1 (Johns Hopkins, published 2024).

Columns and labels:
[1] = molecular target: T1, CEACAM-1 on co-stimulated human T cells (human, UniProt P13688 35-526); assay: protein A-agarose immunoprecipitation of lysates of co-stimulated human PBMC treated for 6 d, CEACAM1 immunoblot
T1 construct: whole, on cells; Endogenous protein
T1 sequence (looked up): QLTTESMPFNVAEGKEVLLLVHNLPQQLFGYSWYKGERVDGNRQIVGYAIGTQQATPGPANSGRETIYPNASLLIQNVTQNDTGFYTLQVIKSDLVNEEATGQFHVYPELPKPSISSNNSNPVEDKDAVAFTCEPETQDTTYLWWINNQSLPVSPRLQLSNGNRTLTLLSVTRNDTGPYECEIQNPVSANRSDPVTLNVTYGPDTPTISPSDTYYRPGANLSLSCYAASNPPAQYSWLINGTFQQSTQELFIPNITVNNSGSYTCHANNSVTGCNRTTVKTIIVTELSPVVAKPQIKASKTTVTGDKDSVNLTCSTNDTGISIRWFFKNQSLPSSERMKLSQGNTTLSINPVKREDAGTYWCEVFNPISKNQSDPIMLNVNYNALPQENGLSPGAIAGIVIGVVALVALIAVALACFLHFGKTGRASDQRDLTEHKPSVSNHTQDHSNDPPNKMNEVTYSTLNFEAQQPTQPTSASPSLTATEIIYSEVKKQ
Experimental: (§1) The precipitated complexes were washed with immunoprecipitation buffer, re-suspended in NuPAGE sample buffer with reducing agent, boiled, resolved on a Bis-Tris Criterion XT Gel system and transferred to a PVDF membrane. Membranes were immunoblotted with primary antibodies [CEACAM1 (D1P4T); TIM3 (D5D5R™)] overnight, washed, incubated with secondary antibodies and visualized by Amersham ECL Western Blotting Detection Reagents.

[2] = molecular target: T2, recombinant human (rh) CEACAM-1 (human, UniProt P13688 35-428, limits assumed); assay: protein A-agarose pull-down, CEACAM1 immunoblot
T2 construct: Recombinant protein used in the in vitro protein A pull-down
T2 sequence (looked up): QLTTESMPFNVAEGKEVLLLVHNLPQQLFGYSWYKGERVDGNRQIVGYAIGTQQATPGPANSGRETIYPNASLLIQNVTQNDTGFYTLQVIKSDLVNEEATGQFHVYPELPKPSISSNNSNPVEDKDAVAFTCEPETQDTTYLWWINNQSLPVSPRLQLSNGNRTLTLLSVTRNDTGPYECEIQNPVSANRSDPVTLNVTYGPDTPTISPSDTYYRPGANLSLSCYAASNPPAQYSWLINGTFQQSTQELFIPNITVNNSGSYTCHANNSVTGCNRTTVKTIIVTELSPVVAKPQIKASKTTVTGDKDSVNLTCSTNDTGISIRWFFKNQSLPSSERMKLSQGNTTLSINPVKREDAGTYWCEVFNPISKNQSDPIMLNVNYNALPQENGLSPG
Experimental: as §1, with “Reagents. […] This assay is also used to evaluate the binding of any antibody-ligand trap comprising a ligand-binding sequence of a ligand-binding sequence of TIM-3 ectodomain(TIM-3ecd) to rh CEACAM-1.” for “Reagents.”

B1: α-PD1 mAb (nivolumab) (antibody)
heavy: not shown
light: not shown
notes: Parent antibody used as a control; also called α-PD1 antibody (nivolumab); a-PD1 mAb (nivolumab)
B1: no binding [1]; no binding (tested: 10 µg antibody with 5 µg rhCEACAM-1) [2].
